The experiment addresses hFc-hROR2-T245 (recombinant human ROR2 extracellular domain fused to human Fc) (human) (UniProt Q01974). The experiment in a line: SPR (Biacore X100), hFc-hROR2 captured by anti-human Fc on CM5, Fab as analyte, 1:1 Langmuir model.

These results are taken from patent US20190031754A1.

Chain of hFc-hROR2-T245 (recombinant human ROR2 extracellular domain fused to human Fc) (human) (Q01974 55-394 limits assumed, form in doubt): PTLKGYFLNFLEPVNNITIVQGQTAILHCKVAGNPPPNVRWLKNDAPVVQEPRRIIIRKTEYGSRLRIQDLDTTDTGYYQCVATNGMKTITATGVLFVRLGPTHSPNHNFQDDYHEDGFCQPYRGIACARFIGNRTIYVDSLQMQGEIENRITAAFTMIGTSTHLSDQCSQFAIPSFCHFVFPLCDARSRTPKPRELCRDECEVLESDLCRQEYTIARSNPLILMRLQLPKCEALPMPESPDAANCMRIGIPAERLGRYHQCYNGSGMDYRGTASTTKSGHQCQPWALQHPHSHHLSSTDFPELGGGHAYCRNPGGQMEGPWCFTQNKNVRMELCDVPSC

B1: chimeric rabbit/human Fab XBR2-TOP9 (Fab, V domains shown)
VH: QSVEESRGRLVTPGTPLTLICTVSGIDLSSYNIQWVRQAPGKGLEYIGYINTDGSAYYASWAKGRFTISKTSTTVDLKITSPTTEDTATYFCARGGYASGFNLWGPGTLVTISS
VL: DVVMTQTPSSTSAAVGGTVTIKCQASQNIGPWLSWYQQKPGQPPKQLIYAASTLASGVPSRFKGSGSGTDYTLTISGVQREDAATYYCLGWHSWSDDGWAFGAGTNVEIK
As for B1, the koff was 0.0467 s⁻¹ and the kon was 328000 M⁻¹ s⁻¹.

B2: chimeric rabbit/human Fab XBR2-433 (Fab, V domains shown)
VH: QSVKESEGGLFKPTDTLTLTCTVSGFSLSTYGVSWVRQAPGNGLEWIGAIGSSGSANYASWAKDRSTITRNTNLNTVTLKMTSLTAADTATYFCARDGYYSSGWGPYFNIWGPGTLVTISS
VL: SFVLTQPASVQVNLGQTVSLTCTADTLSRSYASWYQQKPGQAPVLLIYRDTSRPSGVPDRFSGSSSGNTATLTISGAQAGDEADYYCATSGGSGSNPQYVFGGGTQLTVTG
As for B2, the Kd was 2280 nM, the koff worked out at 0.108 s⁻¹ and the kon was found to be 47300 M⁻¹ s⁻¹.

B3: chimeric rabbit/human Fab ERR2-TOP35 (Fab, V domains shown)
VH: QSVKESEGGLFKPMDTLTLTCTVSGFSLNTYGVSWVRQAPGNGLEWIGAVGSSGATNYASWAKSRSTITRNTNENTVTLKMTSLTAADTATYFCARDGYYSSGWGPYFSIWGPGTLVTVSS
VL: SFVLTQPASVQVNLGQTVSLTCTAETLRSSYASWYQQKPGQAPVLLIYRDTSRPSGVPDRFSGSSSGNTATLTISGAQAGDEADYYCATSDGSGSRYYVFGGGTQLTVTG
For the molecule B3, the Kd came to 43.3 nM, the koff worked out at 0.00851 s⁻¹ and the kon amounted to 197000 M⁻¹ s⁻¹.

B4: chimeric rabbit/human Fab ERR2-308 (Fab, V domains shown)
VH: QEQLEESGGRLVTPGTPLTLTCAVSGFSLSNYAMGWVRQAPGEGLEYIGWISAGGGAYYASWVNGRFTISKTSSTVDLKMTSLTAADTATYFCARGASNGCDLWGPGTLVTVSS
VL: DPMLTQTPSSVSAVVGGTVTIKCQASQSITSWLSWYQQKPGQPPKLLIYGASHLASGVPSRFKGSGYGTEFTLTISGIQREDAATYYCLGGYSNSDIVFGGGTELEIL
Take B4: the koff came to 0.000286 s⁻¹ and the on-rate constant (kon) was 27100 M⁻¹ s⁻¹.

B5: chimeric rabbit/human Fab ERR2-302 (Fab, V domains shown)
VH: QKQLVESGGGLVKPGGSLTLTCTVSGFSLSSYAIGWVRQAPGNGLEWIGIINSYGSTYYASWAKSRSTITRNTNLNTVTLKMTSLTAADTATYFCARSPYGYVSAWGYHRLDLWGQGTLVTISS
VL: SYELTQLPSVSVSLGQTARITCGGASIGSKVVHWYQQKPGLAPGLLIYDDDERPSGVPDRFSGSNSGDTATLTISGAQAGDEAEYYCQLWDGSDVVFGGGTQLTVTG
For the molecule B5, the dissociation constant (Kd) turned out to be 52.5 nM, the koff was determined as 0.00544 s⁻¹ and the kon is 104000 M⁻¹ s⁻¹.

B6: chimeric rabbit/human Fab ERR2-316 (Fab, V domains shown)
VH: QKQLVESGGRLVTPGGSLTLTCTVSGFSLSKYGVSWVRQAPGSGLEYIGTIGGSGTSYYASWAKSRSTITRNTNLNTVTLKMTSLTAADTATYFCARYFGWNTGFDIWGPGTLVTISS
VL: DPVMTQTPSSVSEPVGGTVTIKCQASQSISNALAWYQQKPGQPPKRLIYKASTPASGVPSRFKGSRSGTEYTLTISGVQREDAATYYCLGFSVVSNDGWAFGAGTNVEIK
On to B6, for which the koff turned out to be 0.0178 s⁻¹ and the kon turned out to be 3.34e+06 M⁻¹ s⁻¹.

B7: chimeric rabbit/human Fab XBR2-327 (Fab, V domains shown)
VH: QEQLKESGGGLFKPTDTLTLTCTVSGFSLSSGAISWVRQAPGNGLEYIGFVNSLGNTYYANWAKSRSAITRNTNENTVTLKMTSLAAADTATYFCAKDYGNWAFDPWGPGTLVTVSS
VL: DPVLTQTPSSVSAAVGGTVAINCQASQSISSYLSWYQQKPGQPPKLLIYGASKLASGVPSRFSGSGSGTEYTLTISGVQREDAATYYCLGGYASASYRTAFGGGTKLEIK
As to B7, the Kd worked out at 57.2 nM, the dissociation rate constant (koff) was 0.00546 s⁻¹ and the kon was found to be 95600 M⁻¹ s⁻¹.

B8: chimeric rabbit/human Fab ERR2-317 (Fab, V domains shown)
VH: QSLEESGGRLVTPGTPLTLTCTASGFSLSSYDMIWVRQAPGKGLEYIGIINAGGNTYYASWAKGRFTISRTSTTVDLKMTSPTTEDTATYFCARGSSWTGDIWGPGTLVTVSS
VL: DPVLTQTPSSTSAAVGGTVTIKCQASQSISSYLSWYQQKPGQPPKQLIYAASTLASGVPSRFKGSGSGTEYTLTISGVQREDAATYYCLGGYASASYQTAFGGGTKVEIK
For B8, the koff stood at 0.0132 s⁻¹ and the kon came out at 83500 M⁻¹ s⁻¹.

B9: chimeric rabbit/human Fab XBR2-416 (Fab, V domains shown)
VH: QEQLEESGGRLVTPGTPLTLTCTVSGFSLSSYWMSWVRQAPGKGLEWIGTITPGGNTDYATWAKARFTVSKTSTTVDLKITSPTTEDTATYFCARGIGGAADLWGPGTLVTISS
VL: AQVLTQTPSSTSAAVGGTVTIKCQASQSISSSDLSWYQQKPGQPPKLLIYATSYLASGVPSRFKGSGSGTEYTLTISGVQREDAATYYCLGGYPNTSYRSAFGGGTKVEIK
With B9, the koff stood at 0.0173 s⁻¹ and the kon worked out at 49800 M⁻¹ s⁻¹.

B10: chimeric rabbit/human Fab XBR2-TOP72 (Fab, V domains shown)
VH: QEQLEESGGRLVTPGTPLTLTCTVSGIDLSSNAMSWVRQAPGKGLEYVGFINGGGGVHYASWARGRFTISKTSTTVDLKITSPTTEDTATYFCARAGTTYYTSFNLWGPGTLVTISS
VL: QFVLTQSPSASAALGSSAKLTCTLSSAHKTYTIAWYQQQQGEAPRLLMMLRTDGSYTKGTGVPDRFSGSSSGADRYLIISSVQADDAAGYYCGADYSGGYVFGGGTQLTVTG
With B10, the Kd is 4150 nM, the koff amounted to 0.154 s⁻¹ and the kon came out at 37000 M⁻¹ s⁻¹.

B11: chimeric rabbit/human Fab ERR2-TOP2 (Fab, V domains shown)
VH: QSLEESGGRLVTPGTPLTLTCTVSGFSLSSYAISWVRQAPGKGLEWIGTIGTRGDTAYANWAKGRFTISKTSTTVTLKMTSPTTEDTATYFCARELVAGGGSDLWGPGTLVTVSS
VL: DVVMTQTPSSVSAVVGGTVTIKCQASQSITSWLSWYQQKPGQPPKLLIYGASHLASGVPSRFKGSGYGTEFTLTISGIQREDAATYYCLGGYLSASYQTAFGGGTKVEIK
With B11, the koff was 0.00242 s⁻¹ and the kon turned out to be 29800 M⁻¹ s⁻¹.
